Patent US20110052551A1, “CARDIAC MYOCYTE MORPHOGENIC COMPOSITIONS AND METHODS OF USE THEREFOR” (priority 2008, published 2011)

Experiments:
unfractionated BMMNCs [1] = experiment: qRT-PCR of pluripotency markers Oct-4 and Nanog in cultured BMMNCs; type: cell-based, mice; conditions: BMMNCs cultured 21 days, 150 ng/ml; normalized to 18S rRNA
From the text: Isolation and culture of unfractionated BM-derived mononuclear cells (BMMNCs). For each experiment, two mice were euthanized by CO2 inhalation followed by cervical dislocation and their femurs and tibias were removed and placed in Dulbecco's Modified Eagle Medium/F12 (DMEM/F12; Invitrogen Corp.). The bones were stripped of soft tissue with fine forceps exposing the long bone shafts. The BM was flushed into and suspended in fresh DMEM/F12 using a 23-gauge needle and 5-ml syringe. The BM was further dispersed by repeated passage through the 23-gauge needle for 10 minutes.
After filtering cells through a 70 μm nylon mesh filter, the MNC fraction (BMMNCs) were separated using FICOLL-PAQUE™ (Sigma Aldrich, St. Louis, Mo., United States of America) density-gradient centrifugation as described in (Zuba-Surma et al., 2006). See also FIG. 9A. The viability of unfractionated BMMNCs was assessed by Trypan blue (Sigma Aldrich) staining. Approximately 15×10^6 unfractionated BMMNCs were obtained from each mouse. Adult unfractionated BMMNCs were seeded (n=5×10^5 cells/well) in 6-well tissue culture plates (lower chamber of a 6-well tissue culture TRANSWELL® system; Corning Inc. Life Sciences, Lowell, Mass., United States of America) on fibronectin (FN)-coated glass coverslips (Fischer Scientific). […]
Assessment of mRNA expression by quantitative real-time RT-PCR (qRT-PCR). […]

unfractionated BMMNCs [2] = experiment: Immunocytochemistry for pan-hematopoietic marker CD45; type: cell-based, mice; conditions: after 21 days of culture; percent of total cells
Procedure: Immunocytochemistry. Cells were fixed on glass cover-slides with 4% paraformaldehyde for 20 minutes at 4° C. Cells were washed four times and permeabilized with BD PERM/WASH™ (containing saponin; BD Biosciences, San Jose, Calif., United States of America). For immunostaining, separate preparations of BD PERM/WASH™ containing primary monoclonal antibodies against either cardiac troponin T (cTnT; Santa Cruz Biotechnology, Santa Cruz, Calif., United States of America) or cardiac myosin heavy chain (cMyHC; Novus Biologicals, Inc., Littleton, Colo., United States of America) or connexin-43 or Oct-4 were prepared; all primary antibodies, save cMyHC, were purchased from Santa Cruz Biotechnology. Each preparation also contained primary monoclonal antibodies against nestin, glial fibrillary acidic protein (GFAP), CD11B, Gr-1 (myeloid lineage markers), the CD45 epitope, myogenin
These preparations were then applied separately (i.e., mixtures either with cTnT or with cMyHC) or, for co-immunostaining experiments, in combinations to cells for 16 hours at 4° C. and 37° C. for the final hour. […]

B1: Wnt3a: recombinant Wnt3a protein, canonical Wnt, used at 150 ng/ml (protein, UniProt P56704 19-352, looked up)
Protein Wnt-3a: SYPIWWSLAVGPQYSSLGSQPILCASIPGLVPKQLRFCRNYVEIMPSVAEGIKIGIQECQHQFRGRRWNCTTVHDSLAIFGPVLDKATRESAFVHAIASAGVAFAVTRSCAEGTAAICGCSSRHQGSPGKGWKWGGCSEDIEFGGMVSREFADARENRPDARSAMNRHNNEAGRQAIASHMHLKCKCHGLSGSCEVKTCWWSQPDFRAIGDFLKDKYDSASEMVVEKHRESRGWVETLRPRYTYFKVPTERDLVYYEASPNFCEPNPETGSFGTRDRTCNVSSHGIDGCDLLCCGRGHNARAERRREKCRCVFHWCCYVSCQECTRVYDVHTCK
increase in Nanog mRNA expression compared with baseline (unfractionated BMMNCs [1]): 158±0.6 fold
increase in Oct-4 mRNA expression compared with baseline (unfractionated BMMNCs [1]): 177±0.4 fold
cells positive for CD45 (unfractionated BMMNCs [2]): 69.9±2.9%
